Test results from US12576154B2, “Conjugates of PSMA-binding moieties with cytotoxic agents” (PHILOCHEM AG, priority 2022, dated 2026).

Assays:
HT1080.hPSMA xenografts = experiment: Payload study and combination therapy with L19-IL2 in HT1080.hPSMA tumor model (tumor volume); format: in vivo, mice; details: conjugates 250 nmol/kg i.v. days 7 and 11; L19-IL2 2.5 mg/kg i.v. days 8, 10, 12; n=3/4
Protocol: HT1080.hPSMA tumor cells were grown to 90% confluence and detached with Trypsin-EDTA 0.05%. Cells were resuspended in Hank's Balanced Salt Solution (HBSS) at a 5×10^7 cells/mL density. 100 μL of HT1080.hPSMA cells (5×10^6 cells) were injected subcutaneously in the right flank of female athymic Balb/c AnNRj-Foxn1 mice (6 to 8 weeks of age). Tumors were grown until an average volumes of ˜100 mm^3 was reached.
Tumor-bearing mice were randomized into groups of 3 or 4 animals. A 50 μM solution (2% DMSO, 250 nmol/kg; 100 μL) of Conjugate 1, 5, or 6, L19-IL2 (SEQ ID NO: 10, 0.5 mg/mL, 2.5 mg/kg; 100 μL), PBS (100 μL), or L19-IL2 buffer (NaH2PO4 6.7 mM, NaCl 20 mM, KCl 1.8 mM, Mannitol 133 mM, Tween80 0.1% v/v, Glycerol 1% w/v; 100 μL) was injected intravenously (i.e., systemic administration through tail-vein) with the following schedule:
Groups of Conjugates 1, 5, or 6: two separate injections with a 3-day break in between (day 7 and day 11 after tumor implantation).
L19-IL2 group: three separate injections with a 1-day break in between (day 8, day 10, and day 12 after tumor implantation).
Combination therapy groups: two separate injections of Conjugate 1, 5, or 6 with a 3-day break in between (day 7 and day 11 after tumor implantation) and three separate injections of L19-IL2 with a 1-day break in between (day 8, day 10, and day 12 after tumor implantation). […]

LNCaP tumor (PSMA+) = experiment: MMAE release from conjugates in LNCaP tumor model (biodistribution by LC-MS); format: in vivo, mice
Protocol: LNCaP tumor cells were grown to 80% confluence and detached with Trypsin-EDTA 0.05%. Cells were resuspended in PBS at a density of 30×10^6 cells/mL. The cell suspension was further diluted 1:1 with Matrigel. 200 μL of LNCaP cells (3×10^6 cells) were injected subcutaneously in the left flank of female athymic Balb/c AnNRj-Foxn1 mice (6 to 8 weeks of age). Tumors were grown until volumes of 200-300 mm^3 were observed.
0.1 ml of 50 μM solutions (2% DMSO, PBS) of the four Conjugates (1-4) were injected intravenously into 4 of the mice (1 mouse per SMDC). The animals were sacrificed after 24 h and the following organs were extracted: blood, LNCaP tumor (PSMA+), heart, lungs, liver, kidney, spleen, stomach. The blood fraction was centrifuged, and the plasma (supernatant) was extracted. The organs were preserved at −80° C. before being used for further analysis.
Frozen plasma or mouse tissues (˜50 mg) were thawed and treated with 600 μL of an aqueous solution containing 95% acetonitrile (ACN), and 0.1% HCOOH were added to induce protein precipitation. 50 μL of a solution of d8-MMAE, 50 nM) was added as internal standard. Samples were then homogenized with a tissue lyser for 15 minutes at 30 Hz. After homogenization, samples were centrifuged (21'000 g for 10 minutes). The supernatant was collected and dried at room temperature with a rotary evaporator. Pellets were then resuspended in 1 mL of an aqueous solution containing 3% ACN and 0.1% of TFA and subsequently purified on Oasis HLB SPE columns. Eluates were dried under vacuum at room temperature. […] Peak areas of analytes and internal standards were integrated, and corresponding ratios were calculated. The ratios were then transformed into pmol/g of wet tissue using single-concentration external calibration points and corrected by the total weight of the sample analysed. The percentage of injected dose per gram (% ID/g) was finally calculated by normalizing the value based on the total dose injected into the mouse. […]

Structure (SMILES): CC[C@H](C)[C@@H]([C@@H](CC(=O)N1CCC[C@H]1[C@H](OC)[C@@H](C)C(=O)N[C@H](C)[C@@H](O)c1ccccc1)OC)N(C)C(=O)[C@@H](NC(=O)[C@H](C(C)C)N(C)C(=O)OCc1ccc(NC(=O)[C@@H]2CCCN2C(=O)CNC(=O)CCCCCN2C(=O)CC(SC[C@H](N)C(=O)NCCCCCC(=O)NC[C@H]3CC[C@H](C(=O)N[C@@H](Cc4ccc5ccccc5c4)C(=O)NCCCC[C@H](NC(=O)N[C@@H](CCC(=O)O)C(=O)O)C(=O)O)CC3)C2=O)cc1)C(C)C (stereo partly drawn) [Conjugate 1]
- In vivo anti-tumor activity, monotherapy (tumor volume) (HT1080.hPSMA xenografts): slightly lower anti-cancer efficacy as compared to Conjugate 5
- MMAE release, experiment repeated with three mice each (LNCaP tumor (PSMA+); 24 h after intravenous injection, LNCaP tumor model, n=3): confirmed
- MMAE release (quantitative biodistribution) (LNCaP tumor (PSMA+); 24 hours after intravenous injection, 0.1 ml of 50 μM, 1 mouse per SMDC, LNCaP tumor and organs): Significant release of MMAE
